Experimental data as given in paper PMC3597662.

Target: T1, Cbp2Hb wild type (Hyperthermus butylicus, UniProt A2BLH2 1-103)
T1 sequence: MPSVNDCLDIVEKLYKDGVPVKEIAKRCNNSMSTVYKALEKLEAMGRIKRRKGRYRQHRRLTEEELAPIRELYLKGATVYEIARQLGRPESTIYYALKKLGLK
Experiment: NMR

B1: CRISPR-1rHb 25 bp single repeat (dsDNA)
DNA 1: CTTGCAATTCTCTTTTGAGTTGTTC
DNA 2: GAACAACTCAAAAGAGAATTGCAAG
B1: binds.
